From patent publication US20240425589A1 (Chugai, published 2024)

Assays:
hCLDN3/BaF3 = target: T1, hCLDN3/BaF3; experiment: flow cytometry on hCLDN3/BaF3 cells, detection with Alexa Fluor 488 anti-human IgG
T1 construct: also called human CLDN3 on Ba/F3 cells
T1 membrane protein: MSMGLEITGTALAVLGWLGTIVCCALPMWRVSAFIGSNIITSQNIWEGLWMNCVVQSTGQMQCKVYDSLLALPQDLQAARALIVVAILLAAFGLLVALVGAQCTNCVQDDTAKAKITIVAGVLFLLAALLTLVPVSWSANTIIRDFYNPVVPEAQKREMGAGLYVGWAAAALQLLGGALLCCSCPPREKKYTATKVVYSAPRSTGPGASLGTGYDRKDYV

hCLDN4/BaF3 = target: T2, hCLDN4/BaF3; experiment: flow cytometry on hCLDN4/BaF3 cells, detection with Alexa Fluor 488 anti-human IgG
T2 construct: also called human CLDN4 on Ba/F3 cells
T2 membrane protein: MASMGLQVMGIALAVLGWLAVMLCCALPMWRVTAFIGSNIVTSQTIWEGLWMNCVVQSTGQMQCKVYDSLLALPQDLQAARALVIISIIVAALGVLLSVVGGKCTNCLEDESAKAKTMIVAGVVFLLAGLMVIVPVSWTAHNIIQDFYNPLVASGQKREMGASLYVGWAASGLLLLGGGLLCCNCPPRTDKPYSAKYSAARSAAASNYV

hCLDN9/BaF3 = target: T3, hCLDN9/BaF3; experiment: flow cytometry on hCLDN9/BaF3 cells, detection with Alexa Fluor 488 anti-human IgG
T3 construct: also called human CLDN9 on Ba/F3 cells
T3 membrane protein: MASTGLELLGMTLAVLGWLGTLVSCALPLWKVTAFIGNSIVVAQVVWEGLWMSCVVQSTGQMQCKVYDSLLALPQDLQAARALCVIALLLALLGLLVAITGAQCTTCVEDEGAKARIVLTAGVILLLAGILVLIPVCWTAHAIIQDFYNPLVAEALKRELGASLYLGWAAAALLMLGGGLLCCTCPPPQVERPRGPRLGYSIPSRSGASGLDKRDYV

[1] = target: T4, human CLDN6 on Ba/F3 cells (hCLDN6/BaF) (human, UniProt P56747 1-220); experiment: flow cytometry on hCLDN6/BaF3 cells, detection with Alexa Fluor 488 anti-human IgG
T4 construct: also called human Claudin-6
T4 chain: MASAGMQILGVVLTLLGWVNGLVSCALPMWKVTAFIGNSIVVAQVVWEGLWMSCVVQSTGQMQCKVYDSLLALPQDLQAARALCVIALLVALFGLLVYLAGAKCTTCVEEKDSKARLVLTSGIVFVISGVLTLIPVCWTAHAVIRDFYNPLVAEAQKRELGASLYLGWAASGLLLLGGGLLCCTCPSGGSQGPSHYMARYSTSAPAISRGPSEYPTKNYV

[2] = target: cyno CLDN6 VLP (virus-like particle) (cynomolgus monkey)
human CD3eg linker = target: T5, human CD3eg linker (human); experiment: SPR Biacore 8K, 25 C, pH 7.4, antibody captured by anti-human Fc on CM4 chip, CD3eg injected at 500 and 2000 nM, 1:1 fit
T5 construct: Single-chain construct: CD3 gamma and epsilon subunits joined by a 29-mer linker, Flag-tag at the C-terminal end of the gamma subunit; also called recombinant human CD3; gamma and epsilon subunits of the human CD3 complex linked by a 29-mer linker, Flag-tag
T5 chain: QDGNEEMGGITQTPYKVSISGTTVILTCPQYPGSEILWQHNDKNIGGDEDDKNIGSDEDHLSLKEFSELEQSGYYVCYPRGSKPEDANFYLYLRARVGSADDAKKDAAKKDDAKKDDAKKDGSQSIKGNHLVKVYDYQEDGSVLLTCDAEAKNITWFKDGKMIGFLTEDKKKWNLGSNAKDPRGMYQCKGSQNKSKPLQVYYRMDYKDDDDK

recombinant cyno CD3eg = target: T6, recombinant cyno CD3eg (cynomolgus monkey); experiment: as above
T6 construct: Construct not described; also called cyno CD3eg (gamma and epsilon subunits of CD3)
T6 sequence (Q95LI5 22-117, chain 1 of 2): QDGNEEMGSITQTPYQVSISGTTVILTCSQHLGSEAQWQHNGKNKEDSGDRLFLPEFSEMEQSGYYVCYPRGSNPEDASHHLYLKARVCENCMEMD
T6 sequence (Q95LI7 23-113, chain 2 of 2, further chain): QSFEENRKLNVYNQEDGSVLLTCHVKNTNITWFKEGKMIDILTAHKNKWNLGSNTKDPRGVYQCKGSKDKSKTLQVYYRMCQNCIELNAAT

[3] = target: T7, Human CD137 extracellular domain (ECD) with hexahistidine (His-tag) and biotin acceptor peptide (BAP) (human); experiment: SPR Biacore 8K, 37 C, pH 7.4, antibody captured by anti-human Fc on CM4 chip, CD137 injected at 500 and 2000 nM, 1:1 fit
T7 construct: Expressed in FreeStyle293F cells; also called recombinant human CD137; human CD137 ECD; not shown: C-terminal hexahistidine tag and biotin acceptor peptide (BAP)
T7 sequence (chain, as listed by the source): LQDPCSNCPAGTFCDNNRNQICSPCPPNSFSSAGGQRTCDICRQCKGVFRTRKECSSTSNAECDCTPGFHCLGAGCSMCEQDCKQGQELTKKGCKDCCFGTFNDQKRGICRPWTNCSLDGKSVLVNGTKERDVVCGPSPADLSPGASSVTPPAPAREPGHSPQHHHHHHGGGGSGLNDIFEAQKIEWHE

recombinant cyno CD137 = target: T8, recombinant cyno CD137 (cynomolgus monkey, UniProt A9YYE7 24-186); experiment: as above
T8 sequence: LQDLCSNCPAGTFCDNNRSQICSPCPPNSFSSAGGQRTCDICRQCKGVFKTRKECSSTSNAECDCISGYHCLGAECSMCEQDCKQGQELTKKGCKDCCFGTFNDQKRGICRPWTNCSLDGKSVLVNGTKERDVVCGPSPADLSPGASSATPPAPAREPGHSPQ

[4] = target: T9, human CLDN6 VLP (virus-like particle) (human, UniProt P56747 1-220); experiment: SPR Biacore T200, 25 C, pH 7.4, CLDN6 VLP captured by anti-human CD81 on C1 chip, antibody injected at 50 and 200 nM, 1:1 fit
T9 chain: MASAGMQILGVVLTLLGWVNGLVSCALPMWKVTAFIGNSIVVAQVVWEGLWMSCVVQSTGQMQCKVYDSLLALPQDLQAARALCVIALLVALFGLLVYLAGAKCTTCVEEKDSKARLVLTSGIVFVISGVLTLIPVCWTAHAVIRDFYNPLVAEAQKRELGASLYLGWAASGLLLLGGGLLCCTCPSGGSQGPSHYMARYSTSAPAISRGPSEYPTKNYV

B1: CS2961 (bispecific antibody, V domains shown)
VH 1: QVQLVESGGGVVQPGGSLRLSCAASGFTFSSYTMSWVREAPGQGLEWMGTISSGGGRTYYPDSVKGRFTISRDNSKNTLYLQMNSLRDEDTAVYYCARGDYRYDGFAYWGEGTLVTVSS
VL 1: DIQMTQSPSSLSASVGDRVTITCRASYNIDSYLAWYQKKPGKAPELLIYYSTLLVDGVPDRFSGSRSGTDFTLTISSLQPEDFATYYCQHYYSIPYTFGQGTKVEIE
VH 2: QVQLVESGGGVVQPGGSLRLSCAASGFTFSNAWMHWVRKAPGKGLEWVAQIKDKSQNYATYVAESVKGRFTISRADSKNSIYLQMNSLKTEDTAVYYCRYVHYAAGYGVDIWGQGTTVTVSS
VL 2: DIVMTQSPLSLPVTPGEPASISCRSSQPLVHSNRNTYLHWYQEKPGQAPRLLIYKVSNRFSGVPDRFSGSGSGTDFTLKISRVEAEDVGVYYCGQGTQVPYTFGQGTKLEIK
notes: detected with anti-human IgG; also called anti-CLDN6/CD3 bispecific antibody (CS2961)
B1: no binding (tested: 15 micro g/ml) (hCLDN3/BaF3); no binding (tested: 15 micro g/ml) (hCLDN4/BaF3); no binding (tested: 15 micro g/ml) (hCLDN9/BaF3).

B2: 6PHU3/TR01 (bispecific antibody, V domains shown)
VH 1: EVQLQQSGPELVKPGASMKISCKASGYSFTGYTMNWVKQSHGKNLEWIGLINPYNGGTIYNQKFKGKATLTVDKSSSTAYMELLSLTSEDSAVYYCARDYGFVLDYWGQGTTLTVSS
VL 1: DIVLTQSPSIMSVSPGEKVTITCSASSSVSYMHWFQQKPGTSPKLCIYSTSNLASGVPARFSGRGSGTSYSLTISRVAAEDAATYYCQQRSNYPPWTFGGGTKLEIK
VH 2: QVQLVESGGGVVQPGGSLRLSCAASGFTFSNAWMHWVRQAPGKGLEWVAQIKDKSQNYATYVAESVKGRFTISRADSKNSIYLQMNSLKTEDTAVYYCRYVHYAAGYGVDIWGQGTTVTVSS
VL 2: DIVMTQSPLSLPVTPGEPASISCRSSQPLVHSNRNTYLHWYQQKPGQAPRLLIYKVSNRFSGVPDRFSGSGSGTDFTLKISRVEAEDVGVYYCGQGTQVPYTFGQGTKLEIK
notes: also called anti-CLDN6/CD3 bispecific antibody (6PHU3/TR01)
B2: no binding (tested: 15 micro g/ml) (hCLDN3/BaF3); no binding (tested: 15 micro g/ml) (hCLDN4/BaF3).

B3: KLH/TR01 (bispecific antibody, V domains shown)
VH 1: QVQLQQSGPQLVRPGASVKISCKASGYSFTSYWMHWVNQRPGQGLEWIGMIDPSYSETRLNQKFKDKATLTVDKSSSTAYMQLSSPTSEDSAVYYCALYGNYFDYWGQGTTLTVSS
VL 1: DIQMTQSSSSFSVSLGDRVTITCKASEDIYNRLAWYQQKPGNAPRLLISGATSLETGVPSRFSGSGSGKDYTLSITSLQTEDVATYYCQQYWSTPYTFGGGTKLEVK
VH 2: QVQLVESGGGVVQPGGSLRLSCAASGFTFSNAWMHWVRQAPGKGLEWVAQIKDKSQNYATYVAESVKGRFTISRADSKNSIYLQMNSLKTEDTAVYYCRYVHYAAGYGVDIWGQGTTVTVSS
VL 2: DIVMTQSPLSLPVTPGEPASISCRSSQPLVHSNRNTYLHWYQQKPGQAPRLLIYKVSNRFSGVPDRFSGSGSGTDFTLKISRVEAEDVGVYYCGQGTQVPYTFGQGTKLEIK
notes: also called negative control
B3: no binding (tested: 15 micro g/ml) [1]; no binding (tested: 15 micro g/ml) (hCLDN9/BaF3).

B4: PPU4135 (bispecific antibody, human IgG1, kappa, L234A L235A, N297A)
heavy 1: QVQLVESGGGVVQPGGSLRLSCAASGFTFSSYTMSWVRQAPGQGLEWMGTISSGGGRTYYPDSVKGRFTISRDNSKNTLYLQMNSLRDEDTAVYYCARGDYRYDGFAYWGEGTLVTVSSASTKGPSVFPLAPSSKSTSGGTAALGCLVEDYFPEPVTVSWNSGALTSGVHTFPAVLESSGLYSLSSVVTVPSSSLGTQTYICNVNHKPSNTKVDKRVEPKSCDKTHTCPPCPAPEAAGGPSVFLFPPKPKDTLMISRTPEVTCVVVDVSHEDPEVKFNWYVDGVEVHNAKTKPREEQYASTYRVVSVLTVLHQDWLNGKEYKCKVSNKALPAPIEKTISKAKGQPREPQVYTLPPSREEMTKNQVSLTCLVKGFYPSDIAVEWESNGQPENNYKTTPPVLDSDGSFFLYSKLTVDKSRWQQGNVFSCSVMHEALHNHYTQESLSLSP
light 1: DIQMTQSPSSLSASVGDRVTITCRASYNIDSYLAWYQQKPGKAPELLIYYSTLLVDGVPDRFSGSRSGTDFTLTISSLQPEDFATYYCQHYYSIPYTFGQGTKVEIERTVAAPSVFIFPPSDEQLKSGTAKVVCLLNNFYPREAKVQWKVDNALQSGNSKESVTEQDSKDSTYSLSSTLTLSKADYEKHKVYACEVTHQGLSSPVTKSFNRGEC
heavy 2: QVQLVESGGGLVQPGRSLRLSCAASGFKFSNVWFHWVRQAPGKGLEWVAQIKDYYNAYAAYYAPSVKGRFTISRDDSKNSIYLQMNSLKTEDTAVYYCHYVHYASASTLLPAEGVDAWGQGTTVTVSSASTKGPSVFPLAPSSKSTSGGTAALGCLVKDYFPEPVTVSWNSGALTSGVHTFPAVLKSSGLYSLSSVVTVPSSSLGTQTYICNVNHKPSNTKVDKRVEPKSCDKTHTCPPCPAPEAAGGPSVFLFPPKPKDTLMISRTPEVTCVVVDVSHEDPEVKFNWYVDGVEVHNAKTKPREEQYASTYRVVSVLTVLHQDWLNGKEYKCKVSNKALPAPIEKTISKAKGQPREPQVYTLPPSRKEMTKNQVSLTCLVKGFYPSDIAVEWESNGQPENNYKTTPPVLDSDGSFFLYSKLTVDKSRWQQGNVFSCSVMHEALHNHYTQKSLSLSP
light 2: DIVMTQSPLSLPVTPGEPASISCQPSQEVVHMNRNTYLHWYQQKPGQAPRLLIYKVSNRFPGVPDRFSGSGSGTDFTLKISRVEAEDVGVYYCAQGTSHPFTFGQGTKLEIKRTVAAPSVFIFPPSDEQLKSGTAEVVCLLNNFYPREAKVQWKVDNALQSGNSEESVTEQDSKDSTYSLSSTLTLSKADYEKHKVYACEVTHQGLSSPVTKSFNRGEC
notes: also called CS4135; Ab03
Binder B4 has a Kd [2] of 3.77 nM, a koff [2] of 0.000821 s⁻¹ and a kon [2] of 218000 M⁻¹ s⁻¹. The Kd (human CD3eg linker) was 341 nM, the koff (human CD3eg linker) was 0.0266 s⁻¹ and the kon (human CD3eg linker) was 78000 M⁻¹ s⁻¹. It also gave a Kd (recombinant cyno CD3eg) of 329 nM, a koff (recombinant cyno CD3eg) of 0.0332 s⁻¹ and a kon (recombinant cyno CD3eg) of 101000 M⁻¹ s⁻¹. For the same binder, the Kd [3] was 46.8 nM, the koff [3] was 0.000591 s⁻¹ and the kon [3] was 12600 M⁻¹ s⁻¹. It also gave a Kd (recombinant cyno CD137) of 174 nM, a koff (recombinant cyno CD137) of 0.00146 s⁻¹ and a kon (recombinant cyno CD137) of 8350 M⁻¹ s⁻¹. The Kd [4] was 3.65 nM, the koff [4] was 0.000794 s⁻¹ and the kon [4] was 217000 M⁻¹ s⁻¹.
